Legend:
Assay type in all cases: in vivo, human
[1] = RBC MTXPG3 levels in RA patients measured by liquid chromatography
Experimental: (§1) Adult RA patients receiving weekly MTX with infliximab for more than three months were enrolled in a cross sectional study. Blood was collected at trough before the infusion of infliximab. Red blood cell (RBC) MTXPGs were measured using liquid chromatography while circulating levels of infliximab were measured using a cell based assay. ATIs were measured using enzyme immunoassays. Statistical analysis consisted of regression analyses and Wilcoxon tests.
(§2) The study was cross sectional study in adult RA patients at three study sites (Brigham and Women's, Boston, Mass.; The Center for Rheumatology, Albany, N.Y.; and Altoona Center for Clinical Research, Altoona Pa.). All RA patients (according to the 2010 ACR criteria for RA)^8 enrolled had received a stable dose of MTX (for at least 4 months) in combination with infliximab for at least 3 months. Clinical parameters and demographic data were collected at the time of a single study visit. The study was approved by an independent ethic committee and informed consent was collected from all patients. Blood was drawn in EDTA containing tube and one SST tube at the time of the study visit. The blood was drawn just prior to the infliximab infusion (trough) and shipped overnight using refrigerated transportation kits. Disease activity was estimated using the clinical disease activity index (CDAI). […] RBC MTXPG3 were measured using a liquid chromatography developed and validated in our laboratory^9. Quantification limit was 5 nmol/L RBCs. Circulating levels of infliximab in serum were measured by Biomonitor (Copenhagen, DK) using a cell based assay consisting of erythroleukemic K562 cells transfected with a NFKB regulated firefly luciferase reporter-gene construct^10. Antibodies to infliximab (ATIs) were measured using a proprietary enzyme immunoassay technique (Biomonitor, Copenhagen, Denmark). The cutoff for positive ATI was 0.9 U/L. Anti-citrullinated peptide auto-antibodies levels (Anti-MCV) were measured using ELISA (Orgentec Diagnostika, Mainz, Germany). […]

[2] = Circulating trough infliximab levels in serum of RA patients on MTX plus infliximab (K562 NFKB-luciferase cell based assay)
Experimental: as §1, §2

[3] = Antibodies to infliximab (ATIs) in RA patients by enzyme immunoassay, cutoff 0.9 U/L
Experimental: as §1
The study was cross sectional study in adult RA patients at three study sites (Brigham and Women's, Boston, Mass.; The Center for Rheumatology, Albany, N.Y.; and Altoona Center for Clinical Research, Altoona Pa.). All RA patients (according to the 2010 ACR criteria for RA)^8 enrolled had received a stable dose of MTX (for at least 4 months) in combination with infliximab for at least 3 months. Clinical parameters and demographic data were collected at the time of a single study visit. The study was approved by an independent ethic committee and informed consent was collected from all patients. Blood was drawn in EDTA containing tube and one SST tube at the time of the study visit. The blood was drawn just prior to the infliximab infusion (trough) and shipped overnight using refrigerated transportation kits. Disease activity was estimated using the clinical disease activity index (CDAI). Upon receipt of blood specimen, erythrocytes and serum were isolated and stored frozen at −80° C. RBC MTXPG3 were measured using a liquid chromatography developed and validated in our laboratory^9. Quantification limit was 5 nmol/L RBCs. Circulating levels of infliximab in serum were measured by Biomonitor (Copenhagen, DK) using a cell based assay consisting of erythroleukemic K562 cells transfected with a NFKB regulated firefly luciferase reporter-gene construct^10. Antibodies to infliximab (ATIs) were measured using a proprietary enzyme immunoassay technique (Biomonitor, Copenhagen, Denmark). The cutoff for positive ATI was 0.9 U/L. Anti-citrullinated peptide auto-antibodies levels (Anti-MCV) were measured using ELISA (Orgentec Diagnostika, Mainz, Germany). Statistical analysis consists of multivariate logistic/linear regression and Wilcoxon tests as appropriate.

| Molecule | median RBC MTXPG3, patients without ATI ([1]; ATI negative patients) [nmol/L] | median RBC MTXPG3, patients having ATIs ([1]; ATI positive patients) [nmol/L] | median RBC MTXPG3 levels ([1]; all 61 RA patients on weekly MTX, red blood cells) [nmol/L] | median infliximab levels, patients without ATI ([2]; ATI negative patients, trough) [µg/mL] | median infliximab levels, patients with ATIs ([2]; ATI positive patients, trough) [µg/mL] | median trough infliximab levels ([2]; all 61 RA patients, MTX with infliximab, serum at trough before infusion) [µg/mL] | patients with ATIs detected ([3]; 11 of 61 patients, ATI>0.9 U/L) [%] | patients testing positive for ATI ([3]; 12 patients with RBC MTXPG3 above 50 nmol/L) | fold lower likelihood of having ATI (odds ratio) ([3]; RBC MTXPG3 levels above 25 nmol/L, logistic regression, CI95%: 1.1-20.8) [fold] | number of patients with ATI ([3]; of 4 patients with MTXPG3<5 nmol/L) | patients presenting with ATI ([3]; patients with RBC MTXPG3 below 5 nmol/L (3 out of 4)) [%] |
| --- | --- | --- | --- | --- | --- | --- | --- | --- | --- | --- | --- |
| CN(Cc1cnc2nc(N)nc(N)c2n1)c1ccc(C(=O)N[C@@H](CCC(=O)N[C@@H](CCC(=O)N[C@@H](CCC(=O)O)C(=O)O)C(=O)O)C(=O)O)cc1 [MTXPG3] | 30 | 22 | 28 |  |  |  |  |  |  |  |  |
| infliximab |  |  |  | 5.0 | < 0.5 | 3.3 | 18 | None and none | 4.7 | 3 | 75 |

Source: patent US20130216530A1, “Methods for optimizing biological response modifier therapy using therapeutic drug monitoring of immunosuppressants” (Exagen Diagnostics, Inc., priority 2012, published 2013)
